# Test results reported in US20240150805A1, “Glycosylated Opioids” (River Stone Biotech ApS, priority 2021, published 2024).
# Assay: In vitro glucosylation of oripavine and nororipavine by purified UGTs
# Type: biochemical
# Conditions: for preference for nororipavine glucosylation compared to oripavine glucosylation: purified UGT, 500 μM substrate, overnight at 30° C., HPLC
# Procedure: Glucosylation samples of a 20 μL total reaction volume for each UGT to be tested were prepared in 96-well microtiter plates as follows:
# The microtiter plate was sealed with an adhesive seal, spun shortly and the glucosylation samples were incubated overnight at 30° C. After incubation, glucosylation reaction was terminated by adding 3 volumes (60 μL) of ice-cold 100% methanol the reaction volume and mixing well, followed by centrifugation of the plate at 3000 rpm for 5 min at 4° C. and analysis by HPLC.
# The 72UGTs of Table 5 were tested in vitro to using the test setup of example 3 identify those having having specificity toward nororipavine.
# [1] = 72UGTs, test setup of example 3, FIG. 8
molecule,measurement,setting,value
"XP_030967178: subfamily 72 UGT, sequence homolog of Qs72S_1 (protein, listed as Quercus lobata) MEQKPHIALLPSPGMGHLIPLVELAKLLLLHHDFHITCIIPVLGSPSKAMKAVLQALPTSIDNVFLPPVILEEEEIKGLKLEVQAMLTLTRSLPPLRDVLKSTRFSAFVVDPFGIDALDIAKELNISPYIFFSSNAFALSLVLHLPKLDETVPCEYRDLPEPVKLPGCIPIHGRDLIEPVQDRTSELYKMFLTNAKRYRLAEGIIVNTFMELEGSAIKAMLEEEAKNLPLFPVGPIQSGSSNQVDKLESDCLSWLDNQPHGSVLFVCFGSGGTLSYEQTNELALGLELSGQKFIWVVRTPNNESADATYLSDQNLGDNPLAFLPKGFVERTKGQGLVVPLWAPQAQVLSHGSTGGFLTHCGWNSTLESIMQGIPLIVWPLFAEQKMNAALLAEDLKVALRPKTDKNGLIDREEIAKVVKGLMVGEEGKKVHNRMEDIKIAAEKALSADGSSTKALSKLATQWKNHPDF",specificity for nororipavine compared to oripavine,[1],particularly high specificity
same,preference for nororipavine glucosylation compared to oripavine glucosylation,,particularly strong preference for Nororipavine glucosylation
"XP_023876189: subfamily 72 UGT, sequence homolog of Qs72S_1 (protein, Quercus suber) MEQKPHIAILPSPGMGHLIPFVEFAKLLLLHHDFHITCIIPTIGSPSKAMREVLQALPTSIDHVFLPPVSLEELGGVKPGIQITLTMIRSLPPLREVLTSLVATTRLVALVVDLFGTDALDVAKELNVSPYIFYPTNAMVVSLVLHLPKLDETVSCEYRDLPEPVKLPGCVPIHGRDLLDPIQDRTTELYKLFLRGAKWLRLVEGIIVNTFMELDGNVIKALEDEEAKSGTIYTIGPIIQSSSTKHVEGSDGLRWLDNQPRGSVLFVCFGSGGTLSYDQMKELALGLELSKQKFLWVVRSPNNELAQAAYFSDQTLDNNPLSFLPVGFIERTKEQGLVVPSWAPQAQVLSHDSTGGFLSHCGWNSTLESIMQGIPLIAWPLFAEQRMNALLLTEDLKVALRPKANEKNLVDREEIAKVIKSLMVGEDGKKIHSRMKDLKIAAEKALSPNGPSTKALADLASHWTNQSNS",specificity for nororipavine compared to oripavine,[1],particularly high specificity
same,preference for nororipavine glucosylation compared to oripavine glucosylation,,particularly strong preference for Nororipavine glucosylation
"KAF3968554: subfamily 72 UGT, sequence homolog of Qs72S_1 (protein, listed as Castanea mollissima) MEQKPHIGILPSPGMGHLIPLVEFAKLLVHHHDFNITCIIPVLGSPSKAMKAVLHALPTTIDHVFLPPVILEEEEMKGPRFEVQTILTLTRSLPPLRDVLKSTRFSAFVVDPFGIDALDIAKELNISPYIFFPTNAFALSLIFHLPKLDETVSCEYRDLPEPLKLPGCIPIHGRDLAEPFQNRTSESYKMFLRIAKRFRLAEGIIVNTFMGLEGSAIKALLEEEAKNLPLYPVGPIQSGSSNQVEESDCLRWLGNQPHGSVLFVCFGSGGTLSYDQTNELALGLELSGQKFLWVVRTPNNESADAAYLSDQTLYNNPLAFLPKGFVERTEGQGLAVPSWAPQAQVLSHGSTGGFLTHCGWNSSLESIMQGIPLIAWPLYAEQKMNAVLLAEDLKVALRPKTNKNGLIDREEIAKVVKGLMDGEEGKKVRNRMKDIKIAAEKALNVDGSSTKTLSKLASKWKNHSSF",preference for nororipavine glucosylation compared to oripavine glucosylation,,particularly strong preference for Nororipavine glucosylation
"XP_023875154: subfamily 72 UGT, sequence homolog of Qs72S_1 (protein, Quercus suber) MLSKMEQKPHIALLPSLGMGHLIPLVEFAKQFVLHHDFHITCIIPVLGSPSKAMKAVLQALPTAIDHVFLPPVKLEEEEIKGLKFEVQTILTLTRSLPPLREVLKSTRFSAFVVDPFGIDALDIAKELNISPYIFFPTNAFALSLIFHLPKLDETVSCEYRDLPEPLKLPGCIPIHGRDLLEPVQDRTSELYKMFLRNAKRFRLAEGIIVNTFMELEGSAIKALLDEEAKNLPLYPIGPIQSGSSNQVDKSESDCLRWLDNQPHGSVLFVCFGSGGTLSYDQTNELALGLELSGQKFLWVVRTPNNESADAAYLSDQTLNNNLLAFLPKGFVERTEGQGLAVPSWAPQAQVLSHGSTGGFLTHCGWNSTLESIMQGIPLIAWPLYAEQKMNAPLLAEDLKVALRPKTNKNGLIDREEIAKVVKGLMIGEEGKKVYNRMKDIKMAAEKALSADGSSTKALSELASQWKNHPGF",specificity for nororipavine compared to oripavine,[1],particularly high specificity
same,preference for nororipavine glucosylation compared to oripavine glucosylation,,particularly strong preference for Nororipavine glucosylation
"PWA37695: subfamily 73 UGT (protein, listed as Artemisia annua) MVAPSTELHFVMFPLMAQGHIVPMVDIARILAEKGATVTIFATPLVANRFRPVISRAIEAKLKIQILELELQVAKVGLPEGCQSFEKLPSSDSSAKLFAAMDLLEQPAEDLVRKLSPPPDCIISDFLFPWTTDMARRFNIPRLVFHGPGCFWLVCMHAVFSSDKFKTIKLEEKFMLPGLPDQVEVTKLQITGTKEIKPEQMGFWVRATEAEKAAYGTVVHTFYELEPEYVKEYSKVKDTKVWCIGPVALSNKANLDIAERGNKAAINEHDCLKWLDEKEPGSVFYVCLGSITRLSTEQAIEIALGLESTNQPFLWFLRNKTQELEKWFSEVGFEERVKDRGLIVHGWAPQILILSHCAVGGFLTHCGWNSTLEGVSFGVPMVTWPHFADQFLNETFIVEILKIGVRIGVDIPELYGEEDKLEALVKKEDVKRAVECLMDKEDKEAKQRRKRARKLAEMAKRAMAEGGSSYVNVSSLIQDITEFRNTQRLNRLHV",preference for nororipavine glucosylation compared to oripavine glucosylation,,very strong preference for oripavine glucosylation
"Qs72S_1: subfamily 72 UGT (glycosyltransferase) from Quercus suber (protein, Quercus suber, subfamily 72 UGT (glycosyltransferase) from Quercus suber) MEQKPHIALLPSPGMGHLIPLVEFAKQFVLHHDFHITCIIPVLGSPSKAMKAVLQALPTTIDHVFLPPVILEEEEIKGLKFEVQTILTLTRSLPPLREVLKTTRFSAFVVDPFGIDALDIAKELNISPYIFFPSNAFALSLIFHLPKLDETVSCEYRDLPEPLKLPGCIPIHGRDLIEPVQDRTSELYKMFLRNAKRFRLAEGIIVNTFMELEGSAIKALLDEEAKNLPLYPIGPIQSGSSNLQVDKSVSDCLRWLDNQPHGSVLFVCFGSGGTLSYDQTNELALGLELSGQKFLWVVRTPNNESADAAYLSDQILDNNPLDFLPKGFVERTEGQGLAVPSWAPQAQVLSHGSTGGFLTHCGWNSTLESIMQGIPLIAWPLYAEQKMNAPLLAEDLKVALRPKTNKSGLIDQEEIAKVVKGLMIGEEGKKVYNRMKDIKMAAEKALSADGSSTKALSELASQWKNHPGF",glucosylation activity,[1],high activity
same,specificity for nororipavine compared to oripavine,[1],particularly high specificity
same,preference for nororipavine glucosylation compared to oripavine glucosylation,,particularly strong preference for Nororipavine glucosylation
"SrUGT71E1: subfamily 71 UGT from Stevia rebaudiana (protein, listed as Stevia rebaudiana) MSTSELVFIPSPGAGHLPPTVELAKLLLHRDQRLSVTIIVMNLWLGPKHNTEARPCVPSLRFVDIPCDESTMALISPNTFISAFVEHHKPRVRDIVRGIIESDSVRLAGFVLDMFCMPMSDVANEFGVPSYNYFTSGAATLGLMFHLQWKRDHEGYDATELKNSDTELSVPSYVNPVPAKVLPEVVLDKEGGSKMFLDLAERIRESKGIIVNSCQAIERHALEYLSSNNNGIPPVFPVGPILNLENKKDDAKTDEIMRWLNEQPESSVVFLCFGSMGSFNEKQVKEIAVAIERSGHRFLWSLRRPTPKEKIEFPKEYENLEEVLPEGFLKRTSSIGKVIGWAPQMAVLSHPSVGGFVSHCGWNSTLESMWCGVPMAAWPLYAEQTLNAFLLVVELGLAAEIRMDYRTDTKAGYDGGMEVTVEEIEDGIRKLMSDGEIRNKVKDVKEKSRAAVVEGGSSYASIGKFIEHVSNVTI",preference for nororipavine glucosylation compared to oripavine glucosylation,,preference for glucosylation of nororipavine
"KAF3968553: subfamily 72 UGT, sequence homolog of Qs72S_1 (protein, listed as Castanea mollissima) MEQKPHIALLPSPGMGHLIPLVEFAKLFVLHHDFRITCIIPVLGSPSKAMKAVLQALPTTIDHVFLPPVILEEEEIKGLKFEVQTILTLTRSLPPLRDVLKSTRFSAFVVDPFGIDALDIAKELKISPYIFFPTNAFVLSLMFHLPKLDETVSCEYRDLPEPLKLPGCIPIHGRDLIEPVQDRTSELYKMFLRNVKRFRLAEGIIVNTFMELEGSAIKALLDEEAKNLPLYPIGPIQSGSSNLQVDKSESDCLRWLDNQPRGSVLFVCFGSGGTLSYDQTNELALGLELSGQKFLWVVRTPDNESADAAYLSDQTLDNNPLAFLPKGFVERTEGQGLAVPSWAPQAQVLSHGSTGGFLTHCGWNSTLESIMQGIPLIAWPLYAEQKMNAPLLAEDLKVALRPKTNKNGLIDREEIAKVVKGLMVGEEGKKVHNRMKDIKIAAEKALSADGSSTKTLSELASQWKNHPGF",specificity for nororipavine compared to oripavine,[1],particularly high specificity
same,preference for nororipavine glucosylation compared to oripavine glucosylation,,particularly strong preference for Nororipavine glucosylation
"XP_023905565: subfamily 72 UGT, sequence homolog of Qs72S_1 (protein, Quercus suber) MEQKPHIALLPSPGMGHLVPLVELAKLLLLHHDFHITCIIPVLGSPSKAMKAVLQALPTSIDHVFLPPVILEEEEIKGLKLEVQAMLTLTRSLPPLRDVLKSTRFSAFVVDPFGIDALDIAKELNISPYIFFPSNAFALSLVLHLPKLDETVSCEYRDLPEPIKLPGCITIHGRDLLEPVQDRTSELYKMFLSNTKRYRLAEGIIVNTFMELEGSAIKALLEEEAKNLPLFPVGPIQSGSSNQVDKSESDCLRWLDNQPHGSVLFVCFGSGGTLSYDQTNELALGLELSGQKFIWVVRTPNNESADATYLSDQTLGNNPLAFLPKGFVERTKGQGLVVPFWAPQAQVLSHGSTGGFLTHCGWNSTLESIMQGIPLIVWPLFAEQKMNAALLAEDLKVALRPKTNKNGRIDREEITKVVKGLMVGEEGKKVRNRMKDIKIAAEKALSADGSSTKALSKLATQWKNHSDF",preference for nororipavine glucosylation compared to oripavine glucosylation,,particularly strong preference for Nororipavine glucosylation
